Assay results: patent publication US20160272683A1 (Novo Nordisk, published 2016)
Numbered stars: 1 amine (or outer) side, 2 acyl side, 3 side chain; on linkers, the order of the positions; unused ones are H or OH. * marks the point of attachment. C20 diacid = O=C(O)CCCCCCCCCCCCCCCCCCC(=O)*; C18 diacid = O=C(O)CCCCCCCCCCCCCCCCC(=O)*; γGlu = O=C(O)[C@H](CCC(=O)[*:2])N[*:1]

T1: human amylin 3(a) receptor (human calcitonin receptor co-expressed with RAMP-3) on BHK570/CRE-luc cells (human, UniProt P30988 25-474; O60896 24-148)
T1 sequence (looked up) 1: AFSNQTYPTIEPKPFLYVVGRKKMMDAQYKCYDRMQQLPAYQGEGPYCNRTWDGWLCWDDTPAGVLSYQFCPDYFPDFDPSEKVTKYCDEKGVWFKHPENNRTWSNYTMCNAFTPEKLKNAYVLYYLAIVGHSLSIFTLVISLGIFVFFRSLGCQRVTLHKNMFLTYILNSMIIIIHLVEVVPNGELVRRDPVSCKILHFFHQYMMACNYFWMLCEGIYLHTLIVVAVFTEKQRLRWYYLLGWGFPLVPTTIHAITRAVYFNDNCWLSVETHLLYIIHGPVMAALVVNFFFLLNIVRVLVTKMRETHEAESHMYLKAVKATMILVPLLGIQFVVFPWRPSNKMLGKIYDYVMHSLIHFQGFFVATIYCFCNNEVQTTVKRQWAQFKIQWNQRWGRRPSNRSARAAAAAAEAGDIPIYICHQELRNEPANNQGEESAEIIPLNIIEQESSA
T1 sequence (looked up) 2: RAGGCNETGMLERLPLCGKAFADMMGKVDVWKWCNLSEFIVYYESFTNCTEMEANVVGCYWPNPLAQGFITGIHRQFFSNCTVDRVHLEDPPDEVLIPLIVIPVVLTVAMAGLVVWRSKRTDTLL

T2: human calcitonin receptor on BHK570/CRE-luc cells (human, UniProt P30988 25-474)
T2 sequence (looked up): T1 sequence (looked up) 1

B1: [N-terminal(C20 diacid-gGlu), des1, 12H, 25H, 30S, 31G]mimylin (peptide)
peptide: {C20 diacid-γGlu}-ASELSTAALGHLSAELHELATLPHTETGSGSP-NH2
SMILES: CC(C)C[C@H](NC(=O)[C@H](C)NC(=O)[C@H](C)NC(=O)[C@@H](NC(=O)[C@H](CO)NC(=O)[C@H](CC(C)C)NC(=O)[C@H](CCC(=O)O)NC(=O)[C@H](CO)NC(=O)[C@H](C)NC(=O)CC[C@H](NC(=O)CCCCCCCCCCCCCCCCCCC(=O)O)C(=O)O)[C@@H](C)O)C(=O)NCC(=O)N[C@@H](Cc1c[nH]cn1)C(=O)N[C@@H](CC(C)C)C(=O)N[C@@H](CO)C(=O)N[C@@H](C)C(=O)N[C@@H](CCC(=O)O)C(=O)N[C@@H](CC(C)C)C(=O)N[C@@H](Cc1c[nH]cn1)C(=O)N[C@@H](CCC(=O)O)C(=O)N[C@@H](CC(C)C)C(=O)N[C@@H](C)C(=O)N[C@H](C(=O)N[C@@H](CC(C)C)C(=O)N1CCC[C@H]1C(=O)N[C@@H](Cc1c[nH]cn1)C(=O)N[C@H](C(=O)N[C@@H](CCC(=O)O)C(=O)N[C@H](C(=O)NCC(=O)N[C@@H](CO)C(=O)NCC(=O)N[C@@H](CO)C(=O)N1CCC[C@H]1C(N)=O)[C@@H](C)O)[C@@H](C)O)[C@@H](C)O
B2: [N-terminal(C20 diacid-gGlu), des1, 9T, 21S, 23Y, 30S, 31G]mimylin (peptide)
peptide: {C20 diacid-γGlu}-ASELSTATLGRLSAELHELSTYPRTETGSGSP-NH2
SMILES: CC(C)C[C@H](NC(=O)[C@H](CCCNC(=N)N)NC(=O)CNC(=O)[C@H](CC(C)C)NC(=O)[C@@H](NC(=O)[C@H](C)NC(=O)[C@@H](NC(=O)[C@H](CO)NC(=O)[C@H](CC(C)C)NC(=O)[C@H](CCC(=O)O)NC(=O)[C@H](CO)NC(=O)[C@H](C)NC(=O)CC[C@H](NC(=O)CCCCCCCCCCCCCCCCCCC(=O)O)C(=O)O)[C@@H](C)O)[C@@H](C)O)C(=O)N[C@@H](CO)C(=O)N[C@@H](C)C(=O)N[C@@H](CCC(=O)O)C(=O)N[C@@H](CC(C)C)C(=O)N[C@@H](Cc1c[nH]cn1)C(=O)N[C@@H](CCC(=O)O)C(=O)N[C@@H](CC(C)C)C(=O)N[C@@H](CO)C(=O)N[C@H](C(=O)N[C@@H](Cc1ccc(O)cc1)C(=O)N1CCC[C@H]1C(=O)N[C@@H](CCCNC(=N)N)C(=O)N[C@H](C(=O)N[C@@H](CCC(=O)O)C(=O)N[C@H](C(=O)NCC(=O)N[C@@H](CO)C(=O)NCC(=O)N[C@@H](CO)C(=O)N1CCC[C@H]1C(N)=O)[C@@H](C)O)[C@@H](C)O)[C@@H](C)O
B3: [N-terminal(C20 diacid-gGlu), des1, 9S, 23Y, 30S, 31G, 33Y]mimylin (peptide)
peptide: {C20 diacid-γGlu}-ASELSTASLGRLSAELHELATYPRTETGSGSY-NH2
SMILES: CC(C)C[C@H](NC(=O)[C@H](CO)NC(=O)[C@H](C)NC(=O)[C@@H](NC(=O)[C@H](CO)NC(=O)[C@H](CC(C)C)NC(=O)[C@H](CCC(=O)O)NC(=O)[C@H](CO)NC(=O)[C@H](C)NC(=O)CC[C@H](NC(=O)CCCCCCCCCCCCCCCCCCC(=O)O)C(=O)O)[C@@H](C)O)C(=O)NCC(=O)N[C@@H](CCCNC(=N)N)C(=O)N[C@@H](CC(C)C)C(=O)N[C@@H](CO)C(=O)N[C@@H](C)C(=O)N[C@@H](CCC(=O)O)C(=O)N[C@@H](CC(C)C)C(=O)N[C@@H](Cc1c[nH]cn1)C(=O)N[C@@H](CCC(=O)O)C(=O)N[C@@H](CC(C)C)C(=O)N[C@@H](C)C(=O)N[C@H](C(=O)N[C@@H](Cc1ccc(O)cc1)C(=O)N1CCC[C@H]1C(=O)N[C@@H](CCCNC(=N)N)C(=O)N[C@H](C(=O)N[C@@H](CCC(=O)O)C(=O)N[C@H](C(=O)NCC(=O)N[C@@H](CO)C(=O)NCC(=O)N[C@@H](CO)C(=O)N[C@@H](Cc1ccc(O)cc1)C(N)=O)[C@@H](C)O)[C@@H](C)O)[C@@H](C)O
B4: [N-terminal(C20 diacid-gGlu), -1E, 1A, 23Y, 30S, 31G]mimylin (peptide)
peptide: {C20 diacid-γGlu}-EAASELSTAALGRLSAELHELATYPRTETGSGSP-NH2
SMILES: CC(C)C[C@H](NC(=O)[C@H](C)NC(=O)[C@H](C)NC(=O)[C@@H](NC(=O)[C@H](CO)NC(=O)[C@H](CC(C)C)NC(=O)[C@H](CCC(=O)O)NC(=O)[C@H](CO)NC(=O)[C@H](C)NC(=O)[C@H](C)NC(=O)[C@H](CCC(=O)O)NC(=O)CC[C@H](NC(=O)CCCCCCCCCCCCCCCCCCC(=O)O)C(=O)O)[C@@H](C)O)C(=O)NCC(=O)N[C@@H](CCCNC(=N)N)C(=O)N[C@@H](CC(C)C)C(=O)N[C@@H](CO)C(=O)N[C@@H](C)C(=O)N[C@@H](CCC(=O)O)C(=O)N[C@@H](CC(C)C)C(=O)N[C@@H](Cc1c[nH]cn1)C(=O)N[C@@H](CCC(=O)O)C(=O)N[C@@H](CC(C)C)C(=O)N[C@@H](C)C(=O)N[C@H](C(=O)N[C@@H](Cc1ccc(O)cc1)C(=O)N1CCC[C@H]1C(=O)N[C@@H](CCCNC(=N)N)C(=O)N[C@H](C(=O)N[C@@H](CCC(=O)O)C(=O)N[C@H](C(=O)NCC(=O)N[C@@H](CO)C(=O)NCC(=O)N[C@@H](CO)C(=O)N1CCC[C@H]1C(N)=O)[C@@H](C)O)[C@@H](C)O)[C@@H](C)O
B5: [N-terminal(C20 diacid-gGlu), des1, 23Y, 30S, 31G, 34K, C-terminal(-)]mimylin (peptide)
peptide: {C20 diacid-γGlu}-ASELSTAALGRLSAELHELATYPRTETGSGSPK-OH
SMILES: CC(C)C[C@H](NC(=O)[C@H](C)NC(=O)[C@H](C)NC(=O)[C@@H](NC(=O)[C@H](CO)NC(=O)[C@H](CC(C)C)NC(=O)[C@H](CCC(=O)O)NC(=O)[C@H](CO)NC(=O)[C@H](C)NC(=O)CC[C@H](NC(=O)CCCCCCCCCCCCCCCCCCC(=O)O)C(=O)O)[C@@H](C)O)C(=O)NCC(=O)N[C@@H](CCCNC(=N)N)C(=O)N[C@@H](CC(C)C)C(=O)N[C@@H](CO)C(=O)N[C@@H](C)C(=O)N[C@@H](CCC(=O)O)C(=O)N[C@@H](CC(C)C)C(=O)N[C@@H](Cc1c[nH]cn1)C(=O)N[C@@H](CCC(=O)O)C(=O)N[C@@H](CC(C)C)C(=O)N[C@@H](C)C(=O)N[C@H](C(=O)N[C@@H](Cc1ccc(O)cc1)C(=O)N1CCC[C@H]1C(=O)N[C@@H](CCCNC(=N)N)C(=O)N[C@H](C(=O)N[C@@H](CCC(=O)O)C(=O)N[C@H](C(=O)NCC(=O)N[C@@H](CO)C(=O)NCC(=O)N[C@@H](CO)C(=O)N1CCC[C@H]1C(=O)N[C@@H](CCCCN)C(=O)O)[C@@H](C)O)[C@@H](C)O)[C@@H](C)O
B6: [N-terminal(C20 diacid-gGlu), des1, 23Y, 30S, 31G, 33Y, C-terminal(-)]mimylin (peptide)
peptide: {C20 diacid-γGlu}-ASELSTAALGRLSAELHELATYPRTETGSGSY-OH
B7: [N-terminal(C18 diacid-gGlu), des1, 5V, 9V, 30S, 31G]mimylin (peptide)
peptide: {C18 diacid-γGlu}-ASEVSTAVLGRLSAELHELATLPRTETGSGSP-NH2
B8: [N-terminal(C18 diacid-gGlu), des1, 6T, 9V, 30S, 31G]mimylin (peptide)
peptide: {C18 diacid-γGlu}-ASELTTAVLGRLSAELHELATLPRTETGSGSP-NH2
SMILES: CC(C)C[C@H](NC(=O)[C@H](CCC(=O)O)NC(=O)[C@H](Cc1c[nH]cn1)NC(=O)[C@H](CC(C)C)NC(=O)[C@H](CCC(=O)O)NC(=O)[C@H](C)NC(=O)[C@H](CO)NC(=O)[C@H](CC(C)C)NC(=O)[C@H](CCCNC(=N)N)NC(=O)CNC(=O)[C@H](CC(C)C)NC(=O)[C@@H](NC(=O)[C@H](C)NC(=O)[C@@H](NC(=O)[C@@H](NC(=O)[C@H](CC(C)C)NC(=O)[C@H](CCC(=O)O)NC(=O)[C@H](CO)NC(=O)[C@H](C)NC(=O)CC[C@H](NC(=O)CCCCCCCCCCCCCCCCC(=O)O)C(=O)O)[C@@H](C)O)[C@@H](C)O)C(C)C)C(=O)N[C@@H](C)C(=O)N[C@H](C(=O)N[C@@H](CC(C)C)C(=O)N1CCC[C@H]1C(=O)N[C@@H](CCCNC(=N)N)C(=O)N[C@H](C(=O)N[C@@H](CCC(=O)O)C(=O)N[C@H](C(=O)NCC(=O)N[C@@H](CO)C(=O)NCC(=O)N[C@@H](CO)C(=O)N1CCC[C@H]1C(N)=O)[C@@H](C)O)[C@@H](C)O)[C@@H](C)O
B9: [N-terminal(C20 diacid-gGlu), des1, 23Y, 30S, 31G, 34G, C-terminal(-)]mimylin (peptide)
peptide: {C20 diacid-γGlu}-ASELSTAALGRLSAELHELATYPRTETGSGSPG-OH
SMILES: CC(C)C[C@H](NC(=O)[C@H](C)NC(=O)[C@H](C)NC(=O)[C@@H](NC(=O)[C@H](CO)NC(=O)[C@H](CC(C)C)NC(=O)[C@H](CCC(=O)O)NC(=O)[C@H](CO)NC(=O)[C@H](C)NC(=O)CC[C@H](NC(=O)CCCCCCCCCCCCCCCCCCC(=O)O)C(=O)O)[C@@H](C)O)C(=O)NCC(=O)N[C@@H](CCCNC(=N)N)C(=O)N[C@@H](CC(C)C)C(=O)N[C@@H](CO)C(=O)N[C@@H](C)C(=O)N[C@@H](CCC(=O)O)C(=O)N[C@@H](CC(C)C)C(=O)N[C@@H](Cc1c[nH]cn1)C(=O)N[C@@H](CCC(=O)O)C(=O)N[C@@H](CC(C)C)C(=O)N[C@@H](C)C(=O)N[C@H](C(=O)N[C@@H](Cc1ccc(O)cc1)C(=O)N1CCC[C@H]1C(=O)N[C@@H](CCCNC(=N)N)C(=O)N[C@H](C(=O)N[C@@H](CCC(=O)O)C(=O)N[C@H](C(=O)NCC(=O)N[C@@H](CO)C(=O)NCC(=O)N[C@@H](CO)C(=O)N1CCC[C@H]1C(=O)NCC(=O)O)[C@@H](C)O)[C@@H](C)O)[C@@H](C)O

biological target: T1, human amylin 3(a) receptor (human …); assay: cell-based or functional assay

Row | hAmylin-R funct. EC50 (pM), tested with HSA | Binder
1 | 440 pM | B1
2 | 150 pM | B2
3 | 81 pM | B3
4 | 181 pM | B4
5 | 209 pM | B5
6 | 976 pM | B6
7 | 356 pM | B7
8 | 19 pM | B8
9 | 210 pM | B9

biological target: T2, human calcitonin receptor on …; assay: cell-based or functional assay

Row | hCTR funct. EC50 (pM), tested with HSA | Binder
10 | 123 pM | B1
11 | 105 pM | B2
12 | 42 pM | B3
13 | 113 pM | B4
14 | 53 pM | B5
15 | 418 pM | B6
16 | 87 pM | B7
17 | 9 pM | B8
18 | 50 pM | B9
